Experiment: yeast display, Sf9 membrane polyspecificity reagent, FACS + sequencing; frameworks hold sequencing errors
How it was run: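 Sorting gates, low and high (top ~1%), were placed on anti-HA fluorescence to track expression and on streptavidin fluorescence to track reagent binding. A clone's polyreactivity label is taken from the gate it came out of. The reagent was 10% biotinylated, detergent-solubilized Sf9 membrane, applied for 1 hour at 4 °C to galactose-induced yeast display cells.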

Row | Sequence | polyreactivity (PSR sort gate)
1 | QVQLVESGGGLVQAGGSLRLSCAASGSTFEPYAMGWYRQAPGKERELVAAISWSGGSTYYADSVKGRFTISRDNAKNTVYLQMNSLQPEDTAVYYCAAESGVPYYLPVVIYYYWGQGTQVTVSS | high polyreactivity
2 | QVQLVESGGGLVQAGGSLRLSCAASGSTFEPYAMGWYRQAPGKERELVATITLRGGTTNYADSVKGRFTISRDNAKNTVYLQMNSLKPEDTAVYYCNARKLTGYIRYRTGKMNYWGQGTQVTVSS | high polyreactivity
3 | QVQLVESGGGLVQAGGSLRLSCAASGSTFERYAMGWYRQAPGKERELVAAITWGGGSTNYADSVKGRFTISRDNAKNTVYLQMNSLKPEDTAVYYCAREWRTRIYYYWGQGTQVTVSS | low polyreactivity
4 | QVQLVESGGGLVQAGGSLRLSCAASGSTFEVYAMGWYRQAPGKEREMVAAINSRGTSTYYADSVKGRFTISRDNEKNTVYIQMNSLKPEDTAVDFCAARHVYYSGYDYWGQGTQVTGSS | low polyreactivity
5 | QVQLVESGGGLVQAGGSLRLSCAASGSTFEYNAMGWYRQAPGKEREFVAASSRTGSRTYYADSVKGRFTISRDNAKHTVYLQMNSLKPEDTAVYYCAVSVPYGMDYWGQGTQLTVSS | high polyreactivity
6 | QVQLVESGGGLVQAGGSLRLSCAASGSTFEYNAMGWYRQAPGKERELVAAISRTANANYADSVKGRFTISRDNAKNTFYLQMNSLKPEETAVYYCAADFLDSKVHVRFGYWGQGTQVTVSS | low polyreactivity
7 | QVQLVESGGGLVQAGGSLRLSCAASGSTFEYYAMGWYRQAPGKEREFVAAITSTGGSTHYADSVKGRFTISRDNAKNTVYLQMNSLKPEDTAVYVCGKRSYGQTRAYSAGNYWGQGNQVTVSS | low polyreactivity
8 | QVQLVESGGGLVQAGGSLRLSCAASGSTFEYYAMGWYRQAPGKERELVAAISTGGSTYYADSVKGRFTISRDNAKNTVYLQMNSLKPEDTAVYYCAALYRTSYVRMGYWGQGTQVTVSS | high polyreactivity
9 | QVQLVESGGGLVQAGGSLRLSCAASGSTFFFNAMGWYRQAPGKERELVAAITGSGGSTYYADSVKGRFTISRDNAKNTVYLQMNSLKPEDTAVYYCNASSPYDYDWGQGTQVTVSS | low polyreactivity
10 | QVQLVESGGGLVQAGGSLRLSCAASGSTFFFNAMGWYRQAPGKERELVAAITVRSGSTYYADSVKGRFTISRDNAKSTVYLQMNSLKPEDTAVYFCAADYSPGRSVVDYWGQGTQVTVSS | low polyreactivity
11 | QVQLVESGGGLVQAGGSLRLSCAASGSTFFFYAMGWYRQAPGKERELVAAISSGGTTDYADSVKGRFTISRDNAKNTVYLQMNSLKPEDTAVYYCAATYVYWTWGYDYWGQGTQVTVSS | low polyreactivity
12 | QVQLVESGGGLVQAGGSLRLSCAASGSTFFGNAMGWYRQAPGKERELVAAITSGGSTNYADSVKGRFTFSRDNAKNTVSLQMNSLKPEDTAVYDCAKPSRWGWTGFYAYDYWGQGTQVTVSS | low polyreactivity
13 | QVQLVESGGGLVQAGGSLRLSCAASGSTFFGYAMGWYREAPGKERELVAAISSRGGSTYYADSVKGRFTISRDNAKKTVYLQMNSLKPEDTAVYYCNKVYHYPYYYWGQGTQVTVSS | high polyreactivity
14 | QVQLVESGGGLVQAGGSLRLSCAASGSTFFGYAMGWYRQAPGKERELVAAITSGGSTNYADSVKGRFTISRDNAKNTVYLQMNRLIPDDTAVYFCARRWYRGYGYWGQGTQVTVSS | high polyreactivity
15 | QVQLVESGGGLVQAGGSLRLSCAASGSTFFIYAMGRYRQAPGKERELVAAISGSGGTTYYADSVKGRFTISRDNAKNTVYLQMNSLKPEDTAVYYCAARTFSAFWRGGYDYWGQGTQVTVSS | low polyreactivity
16 | QVQLVESGGGLVQAGGSLRLSCAASGSTFFIYAMGWYRQAPGKERELVAVIRNIDVRTYYADSVKGRFTISRDNAKNTVYLQMNSLKPEDTAVYYCAADELLDESVDMYYWGQGTQVTVSS | low polyreactivity
17 | QVQLVESGGGLVQAGGSLRLSCAASGSTFFLYMGWYRQAHGKERELVAAITVSGGSTYYADSVKGRFTISRDNAKNTVYLQMNSLKPEDTAVYYCNADWVMRYDYWGQGTQVTVSS | low polyreactivity
18 | QVQLVESGGGLVQAGGSLRLSCAASGSTFFNYAMGWYRQAPGKEREFVARIRWRGGSTYYADSVKGRFTISRDNAKNTVYLQMNSLKPEDTAVYYCNADYWGHGGLYDYWGQGTQVTVSS | high polyreactivity
19 | QVQLVESGGGLVQAGGSLRLSCAASGSTFFNYAMGWYRQAPGKERELVAAISSSGGRTYYADSVKGRFTISRDNAKNTVYLQMNSLKPEDTAVYYCAASGRKNGMNYWGQGTQVTVSS | high polyreactivity
20 | QVQLVESGGGLVQAGGSLRLSCAASGSTFFPYAMGWYRQAPGKERELVAAIRWSGGRTYYADSVKGRFTISRDNAKNTVYLQMNSLKPEDTAVYYCAADKYLYYDYWGQGTQVTVSS | high polyreactivity
21 | QVQLVESGGGLVQAGGSLRLSCAASGSTFFPYAMGWYRQAPGKERELVAAIRWSGGRTYYADSVKGRFTISRDNAKNTVYLQMNSLKPEDTAVYYCAAEKYLDYDYWGQGTQVTVSS | high polyreactivity
22 | QVQLVESGGGLVQAGGSLRLSCAASGSTFFPYAMGWYRQAPGKERELVAAITSGGRTKYADSVKGRFTISRDNAKNTVYLQMNSLKPEDTAVYYCAARGLIKEYGGPYRRFGYWGQGTQVTVSS | high polyreactivity

Row | Sequence | polyreactivity (PSR sort gate)
23 | QVQLVESGGGLVQAGGSLRLSCAASGSTFFPYAMGWYRQAPGKERELVAGISSDGGTSYADSVKGRFTISRDNAKNTVYLQMNSLKPEDTAVYYCAARGLLWYYSWRYYYWGQGTQVTVSS | low polyreactivity
24 | QVQLVESGGGLVQAGGSLRLSCAASGSTFFRNAMGWYRQAPGKERELVAAITWSGGSTYYADSVKGRFTISRDNAKNTVYLQMNSLKPEDTAVYYCAAGLSYWTPHYYPFDYWGQGTQVTVSS | low polyreactivity
25 | QVQLVESGGGLVQAGGSLRLSCAASGSTFFRYAMGWYRPAPGKEREFVAAISKRGGSTHYADSVKGRFTISRDNAKNTVYLQMNSLKPEDTAVYYCAASSFTSSYNFWGQGTQVTVSS | high polyreactivity
26 | QVQLVESGGGLVQAGGSLRLSCAASGSTFFRYAMGWYRQAPGKEREFVAAITWSGTGTYYADSVKGRFTISRDNAENTVYLQMNSLKPEDTAVYYCNAEPFDLWAFYYGYVYGYYHWGQGTQVTVSS | high polyreactivity
27 | QVQLVESGGGLVQAGGSLRLSCAASGSTFFRYAMGWYRQAPGKEREFVAAITWSGTGTYYADSVKGRFTISRDNAKNTVYLQMNSLKPEDTAVYYCNADPFDLWAFYYGYVYGYYHWGQGTQVTVSS | high polyreactivity
28 | QVQLVESGGGLVQAGGSLRLSCAASGSTFFRYAMGWYRQAPGKEREFVAAITWSGTGTYYADSVKGRFTISRDNAKNTVYLQMNSLKPEDTAVYYCNAEPFDLWAFYYGYVYGYYHWGQGTQVTVSS | high polyreactivity
29 | QVQLVESGGGLVQAGGSLRLSCAASGSTFFSNAMGWSRQAPGKERELVAAISWSGGSTYYADSVKGRFTISRDNAKNTVYLQMNSLKPEDTAVYYCAASFWTDYYRYDYWGQGSQVTVSS | low polyreactivity
30 | QVQLVESGGGLVQAGGSLRLSCAASGSTFFSNAMGWYRQAPGKERELVATIRFGGGSTYADSVKGRFTISRDNAKNTVYLQMNSLIPEDTAVYYCAADDSDKRYTRSWYGYWGQGTQVTVSS | low polyreactivity
31 | QVQLVESGGGLVQAGGSLRLSCAASGSTFFSYTMGWSRQAPGKEWELVAAITWSAGTTYYADSVKGRFTISRDNAKNTVYLQMNSLKPEDTAVYYCNADLSRYPTAVRMDYWGQGTQVTVSS | low polyreactivity
32 | QVQLVESGGGLVQAGGSLRLSCAASGSTFFTNAMGWYRQAPAKERELVAVITKRGGSTYYADSVKGRFTISRDKAKNTVYLQMNSLKPEDTAVYYCAARIPKQQGYGYWGHGTQVTVSS | high polyreactivity
33 | QVQLVESGGGLVQAGGSLRLSCAASGSTFFVYAMGWYRQAPGNESEFVAAISKSGGSTYYADSEKGRFTISRDNAKNTVYLQMNSLKPEDTAVYYCAKYSGVNSIVGNDYWGQGTQVTVSS | high polyreactivity
34 | QVQLVESGGGLVQAGGSLRLSCAASGSTFFVYDMGWYRQAPGKERELVAAISSGGTTTYADSVKGRFTISRDNAKNTVNLQMNSLKPEDTAVYYCNARQYTRPYAFDYWGQGTQVTVSS | low polyreactivity
35 | QVQLVESGGGLVQAGGSLRLSCAASGSTFFVYDMGWYRQAPGKEREMVAAISISDGGTYYADSVKWRFTISRDNAKNYVYLQMNSLKPEDTAVYYCADDYSERYFRGYVYLGQGTQVTVSS | low polyreactivity
36 | QVQLVESGGGLVQAGGSLRLSCAASGSTFFYNAMGWYRQAPGKERELVAAITVTGTSTYYADSVKGRFTISRDNAKNTVYLQMNSLKPEDTGVYYCNTSLKRRRLRFNYWGQGTQVTVSS | low polyreactivity
37 | QVQLVESGGGLVQAGGSLRLSCAASGSTFFYYAMGWYRQAPGKERELVAAISGGGGDTTYADSVKGRFTISRDNAKNTVYLQMNSLKPEDTAVYYCAAVPGSFGSGIFDYWGQGTQATVSS | low polyreactivity
38 | QVQLVESGGGLVQAGGSLRLSCAASGSTFFYYAMGWYRQAPGKERELVAAITRGSRTKYADSVKGRFTISRDNAKNTVYLQMNSLKPEDTAVYYCAARKNLYPYCYLWWQDYDYWVQGTQVTVSS | high polyreactivity
39 | QVQLVESGGGLVQAGGSLRLSCAASGSTFGANAMGWYRQAPGKEREFVAAISSGGRTNYADSVKGRFTISRDNAKNTVYLQMNSLKPEDTAVYYCAASFRRWYFYARHEYGYWGQGTQVTVSS | low polyreactivity
40 | QVQLVESGGGLVQAGGSLRLSCAASGSTFGANAMGWYRQAPGKERELVAAITRGVRTHYADSVKGRFTISRDNAKNTVYLQMNSLKPEDTAVYYCNARSYPRWLRYDYWGQGTQVTVSS | low polyreactivity
41 | QVQLVESGGGLVQAGGSLRLSCAASGSTFGANSMGWYRQAPGKERELVAAITYSSGSTRYADSVKGRFTISRDNAKTTVYLQMNILKPEDTAVYYCAARRTNYFKLGYWGQGTQVTVSS | high polyreactivity
42 | QVQLVESGGGLVQAGGSLRLSCAASGSTFGDYAMGWYRQAPGKERELVAAISARGASTYYADSVKGRFTISRDNAKNTVYLQMNSLKPEDTAVYYCAARYVSSGRRFDYCGQGTQVTVSS | high polyreactivity
43 | QVQLVESGGGLVQAGGSLRLSCAASGSTFGFNAMGWYRQAPGKERELLPLFWSGGSTYYADSVKGRFTISRDNAKNTVYLQMYSLKPEDTAVYYCNKDSPPITRYDYWGQGTQVTVSS | low polyreactivity

Reference: the nanobody polyreactivity screen of Harvey et al. (2022)
